The results in this text go back to article PMC4706170.

The target in assay [1] is BG505 SOSIP.664 trimer (HIV-1 strain BG505). Kind of assay: AUC.
Assay [2] deals with BG505 SOSIP.664 201C-433C (HIV-1 strain BG505). Kind of assay: AUC.

Regarding “2-domain soluble CD4 (CD4 D1D2) (domain or fragment)”, the stoichiometry N (CD4 per trimer) in assay [1] came to 3.
“2-domain soluble CD4 (domain or fragment)”: the stoichiometry N (CD4 per trimer) in assay [2] was found to be 1.
As for 4-domain CD4 (domain or fragment), the figures for the stoichiometry N (CD4 per trimer) in assay [1] and in assay [2] were 2 and 1, respectively.
In the case of “4-domain soluble CD4 (CD4 D1D4) (domain or fragment)”, in assay [1], the stoichiometry N (CD4 per trimer) was 3.
